Measured values taken from patent US20100092974A1, “METHODS FOR SCREENING FOR MODULATORS OF CCRL2” (The Board of Trustees of the Leland Stanford Junior …, priority 2008, published 2010).

Assays:
mCMKLR1 [1] = biological target: T1, mCMKLR1 (Mus musculus, UniProt P97468); assay: in vitro transwell chemotaxis, mCMKLR1-HA/L1.2 cells; type: cell-based; conditions: range of doses
T1 construct: expressed in transfected cells; host or cells: L1.2 mouse pre-B lymphoma cells
T1 sequence (P97468 1-371): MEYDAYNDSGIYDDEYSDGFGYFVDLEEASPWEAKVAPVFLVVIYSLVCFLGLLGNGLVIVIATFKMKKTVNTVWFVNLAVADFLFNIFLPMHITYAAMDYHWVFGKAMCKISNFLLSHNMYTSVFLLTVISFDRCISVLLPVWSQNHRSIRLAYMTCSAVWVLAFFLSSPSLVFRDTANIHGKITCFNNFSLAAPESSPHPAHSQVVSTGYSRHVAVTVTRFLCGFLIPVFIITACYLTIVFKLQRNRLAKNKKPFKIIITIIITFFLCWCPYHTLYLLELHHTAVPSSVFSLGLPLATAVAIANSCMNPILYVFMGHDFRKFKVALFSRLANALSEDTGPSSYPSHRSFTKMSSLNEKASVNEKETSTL
Experimental: (§1) For migration experiments using cell lines, 2.5×10^5 cells/100 μl chemotaxis media (RPMI+10% fetal calf serum) were added to the top wells of 5-um pore transwell inserts (Costar, Corning, N.Y., USA), and test samples in 600 μl media were added to the bottom wells. After incubating the transwell plates for 1.5 hours at 37° C., the bottom wells were harvested and flow cytometry was used to assess migration. For primary cell chemotaxis, 1×10^6 cells/100 μl were added to the top well, and, following a 2 hour incubation at 37° C., polystyrene beads (15.0 μm diameter, Polysciences, Warrington, Pa., USA) were added to each well to facilitate normalization of the cell count. The cells were then stained for c-kit, F4/80, and/or CD11b expression and analyzed by flow cytometry. A ratio was generated and percent input migration was calculated.

huCCRL2 = biological target: T2, huCCRL2 (Homo sapiens, UniProt O00421); assay: in vitro transwell chemotaxis, huCCRL2-HA/L1.2 transfectants; type: cell-based; conditions: range of doses; CXCL12 and CCL19 act via endogenous CXCR4 and CCR7
T2 construct: The coding regions of mCCRL2, huCCRL2, mCRTH2, and huCCR10 were amplified from genomic DNA; expressed in transfected cells
T2 sequence (O00421 1-344): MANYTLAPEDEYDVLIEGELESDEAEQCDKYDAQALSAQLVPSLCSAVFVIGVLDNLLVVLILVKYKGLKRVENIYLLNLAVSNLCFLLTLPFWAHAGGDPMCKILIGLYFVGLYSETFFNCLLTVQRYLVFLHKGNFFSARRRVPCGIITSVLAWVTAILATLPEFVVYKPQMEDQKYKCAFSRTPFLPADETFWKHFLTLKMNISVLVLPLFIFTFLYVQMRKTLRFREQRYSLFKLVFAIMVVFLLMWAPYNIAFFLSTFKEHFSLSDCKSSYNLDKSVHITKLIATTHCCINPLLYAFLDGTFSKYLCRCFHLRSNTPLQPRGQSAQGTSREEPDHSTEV
Experimental: as §1

mCMKLR1 [2] = biological target: T1, mCMKLR1; assay: receptor internalization assay, mCMKLR1-HA L1.2; type: cell-based; conditions: 100 nM chemerin
Experimental: (§2) The cells were then washed with 200 μl PBS and stained with mouse anti-HA (Covance, Inc) or mIgG1 isotype control, followed by staining with secondary anti-mouse IgG1 PE, fixed, and analyzed by flow cytometry.

mCMKLR1 [3] = biological target: T1, mCMKLR1; assay: intracellular calcium mobilization, mCMKLR1 L1.2 transfectants; type: cell-based; conditions: Fluo-4
Experimental: Chemoattractant-stimulated Ca^2+-mobilization was performed following Alliance for Cell Signaling protocol ID PP00000210. Cells (3×10^6/mL) were loaded with 4 μM Fluo4-AM and 0.16% Pluronic acid F-127 (Molecular Probes) in modified Iscove's medium (Iscove's medium with 1% heat inactivated bovine calf serum and 2 mM L-glutamine, Invitrogen) for 30 minutes at 37° C. The samples were mixed every 10 minutes during loading, washed once, resuspended at up to 2×10^6/mL in the same buffer, and allowed to rest in the dark for 30 minutes at room temperature. Chemoattractant-stimulated change in Ca^2+-sensitive fluorescence of Fluo-4 was measured over real-time with a FACsScan flow cytometer and CellQuest software (BD Biosciences) at room temperature under constant stirring (500 rpm). Fluorescent data were acquired continuously up to 1024 seconds at 1-second intervals. The samples were analyzed for 45 seconds to establish basal state, removed from the nozzle to add the stimuli, and then returned to the nozzle. Mean channel fluorescence over time was analyzed with FlowJo (TreeStar, Ashland, Oreg., USA) software. […] 500 μl of these chemerin-loaded cells were added to mCMKLR1/L1.2 cells loaded with Fluo4-AM, and calcium mobilization was evaluated.

[4] = system: mouse peritoneal mast cells; assay: immunofluorescence chemerin binding to peritoneal mast cells (WT or CCRL2 KO)
mCCRL2 = biological target: T3, mCCRL2 (Mus musculus, UniProt O35457); assay: receptor internalization assay, mCCRL2-HA L1.2; type: cell-based; conditions: 100 nM chemerin, 15 min
T3 construct: The coding regions of mCCRL2, huCCRL2, mCRTH2, and huCCR10 were amplified from genomic DNA; expressed in transfected cells
T3 sequence (O35457 1-360): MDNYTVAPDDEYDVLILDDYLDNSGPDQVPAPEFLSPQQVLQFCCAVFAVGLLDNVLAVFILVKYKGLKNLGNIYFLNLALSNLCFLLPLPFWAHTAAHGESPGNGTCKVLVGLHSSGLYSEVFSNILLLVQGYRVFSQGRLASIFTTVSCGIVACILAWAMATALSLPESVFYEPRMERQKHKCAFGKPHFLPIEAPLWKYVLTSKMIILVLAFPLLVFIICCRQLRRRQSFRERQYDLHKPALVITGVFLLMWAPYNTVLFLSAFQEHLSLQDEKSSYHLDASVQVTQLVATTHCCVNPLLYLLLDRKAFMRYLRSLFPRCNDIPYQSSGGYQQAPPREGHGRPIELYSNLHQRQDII
Experimental: as §2

## chemerin: protein ligand for signaling receptor CMKLR1; serum form human chemerin expressed in baculovirus-infected insect cells, His8-tag removed
mCMKLR1 [1]
  transwell migration: robust, dose dependent migratory response
huCCRL2
  transwell migration: neither human nor mouse CCRL2-HA/L1.2 transfectants migrated
mCMKLR1 [2]
  time to ligand-induced receptor internalization: ≤ 15 min
mCMKLR1 [3]
  intracellular calcium mobilization: robust calcium flux
[4]; WT mice
  binding to freshly isolated peritoneal mast cells: bound
[4]; WT peritoneal mast cells
  preference for binding of the pro-form vs. the active serum form: no obvious preference
[4]; mCCRL2 KO mice
  binding to peritoneal mast cells: did not bind
mCCRL2
  ligand-induced receptor internalization: failed to internalize
